Test results: a protein production outcome set (Wang et al. 2014)

Experiment: label from the status in PepcDB records
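Note: failed if final PepcDB status was selected cloned or expressed and not failed if soluble or beyond.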

For “MSLKFFLKAYARIAAIAAAVVLVCVLLFNGINSVREQYWHEQAMTPVMRWLAAAPDPLSQYHWMAPMFGLHSGVAADFGLSQVALERLGYGQVVAQSTDSGYGYYVLGLGGEVLGIHLEQPYRDLARAISLMVRWHLDTSPAAQRADVAQQLAESLNLDIRLVQKTEDLPDQQALERLGDTGLAIFEHGDNRARALVRLSEGALVVVTLPPPFNPWGWPIILLLTAVVGGVLAVALFLALRFVESHLRKVESVAIRIARGEMGARVESEQGTLVSRLGTSFNGMAEHIQRLVQVQREMIHAVSHELRTPVARIRFGVQMIESGSTQEVLEKQLEGIDGDIQELDELIDEILTYARLEQGGPVFSLREGSVTDIVRQVVSEQRLIREGVDIECQIDEASERWAQADMEPRYIHRAIQNLVGNAARYAAGRVQVSCHLDEDNCRIDVEDDGPGIPEQDWEKVFTAFARLDDSRTRTSGGYGLGLSIVRRILYWHGGQAFVGRSDVLGGARFSLVWPRLKPADPDL”, the protein production was “failed”.
In the case of “GRDLLLAVDVSGSMDYRDMRWQDDEISRLELIKKLFGDFIEDRRGDRVGLILFGSQAYLQAPLTFDRHTVRVWLDEAQIGIAGKNTAIGDAIGLAVKRLRQRPAESRVLVLITDGANTGGQIAPQIAAQLAAEQQVKIYTIGIGADPQQGGVPGLFGFNPGLDLDEPTLRGIAESTGGEYFRARSSAELESISATLDRLEPVA”, the protein production is reported as “failed”.
In the case of “ARIARVVVHPDYRSDGLGQLSVKAALEWIAERRIPEMRKKKHFVETIAQMARYNPFFEKVGFRYVWETASG”, the protein production is reported as “failed”.
In the case of “MELKQSLSTHLEAEKPLRRYGAVEETAWKTERLGRNQLDIISMAETTMMPEEIELEMAKIQRLREVLVRRESELRFMMDDIQLCKDIMDLKQELQNLVAIPEKEKTKLQKQREDELIQKIHKLVQKRDFLVDDAEVERLREQEEDKEMADFLRIKLKPLDKVTKSPASSRAEKKAEPPPSKPTVAKTGLALIKDCCGATQCNIM”, the protein production is reported as “failed”.
With “MSLDTVDKLVVFLAKRDGIDKLVKTFQYVAKLACWHVEATRPEAADRFKKWEVASGLSRKAFRTGRSLTGFNALRRNPGATPMIRFLAVLANSGEMVYFFFDHFLWLSRIGSIDAKLAKKMSFISAFGESFGYTFFIIIDCIFIKQRLKSLKKLQHSTDEPKEEIGAKISEIRGDIVMRLMGISANVADLLIALAEIHPNPFCNHTITLGISGLVSAWAGWYRNWPS” the protein production was “failed”.
In the case of “MSSRPQREKSMTALTQHAPVLEIYQDIANLTSRMLAAANASNWDLVLNHGQEYVCLVERLRELEPGEPLDEAARGMKFDLLVRILENDAAVRDLALPQLARLSDLLGRMKRQQSLLATYSGKANGT”, the protein production is reported as “not failed”.
With “MFLNYFALGVLIFVFLVIFYGIIAIHDIPYLIAKKRNHPHADAIHTAGWVSLFTLHVIWPFLWIWATLYQPERGWGMQSHVASQEKATDPEIAALSDRISRLEHQLAAEKKTDYSTFPEI” the protein production was “failed”.
In the case of “MEDFWVQYGDEMLPVIGDFPRKGDYLPSFMLVDDQKHDAALESFSHTPKLIVTLLSVDEDEHAGLLLLRETRRFLDSWPHLKLIVITVDSPSSLARARHEHGLPNIALLSTLRGRDFHKRYGVLITEYPLSGYTSPAIILADAANVVHYSERLANTRDFFDFDAIEKLLQEGEQQAMAAEREAAEARQEQDAEREKGTERLLEKAKLIQDQLNRNGDPGR”, the protein production is reported as “not failed”.
In the case of “MGEGALAPGLQLLLRACEQGDTDTARRLLEPGGEPVAGSEAGAEPAGPEAARAVEAGTPVPVDCSDEAGNSALQLAAAGGHEPLVRFLLRRGASVNSRNHYGWSALMQAARCGHASVAHLLLDHGADVNAQNRLGASVLTVASRGGHLGVVKLLLEAGATVDHRNPSGESTASGGSRDELLGITALMAAVQHGHEAVVRLLMEWGADPNHTARTVGWSPLMLAALLGKLSVVQQLVEKGANPDHLGVLEKTAFEVALDRKHRDLADYLDPLTTVRPKTDEEKRRPDIFHALKMGNFQLVKEIADEDPNHVNLVNGDGATPLMLAAVTGQLPLVQLLVEKHADMNKQDSVHGWTALMQATYHGNKEIVKYLLNQGADVTLRAKNGYTAFDLVMLLNDPDTELVRLLASVCMQVNKDRGGRPSHRPPLPHSKARQPWSIPMLPDDKGGLKSWWSRMSNRFRKLKLMQTLPRGLAANQPLPFSDEPELALDSTMRAPPQDRTNHLGPPEAAHAAKDSGPGNPRREKDDVLLTTMLRNGAPFPRLPSDKLKAVIPPFLPPSSFELWSSDRSRTCPNGKADPMKTVLPPRASRAHPVGCVGTDGAAGRPVKFPSISRSPTSPASSGNFNHSPHSSGGASGVGSMSRLGGELHNRSGGSVDSVLSQIAAQRKKAAGLCEQKPPCQQSSPVGPATGSSPPELPASLLGSGSGSSNVTSSSKKLDPGKRPPSGTSATSKSTSPTLTPSPSPKGHTAESSVSSSSSHRQSKSSGGSSSGTITDEDELTGILKKLSLEKYQPIFEEQEVDMEAFLTLTDGDLQELGIKTDGSRQQILAAISELNAGKGRERQILQETIHNFHSSFESSASNTRAPGNSPSMAGWVRPEETVSSRR”, the protein production is reported as “failed”.
In the case of “MQVQHHNAHLSRSVQAQVARLVLQANLAYGESNSNGLSYIQRLKARNECREYLNQALALEADHAAALGLLGRVEMDDGQLEKAHALFNASLNRQPAQAQQYCNLGYWALKSERPALAEEYFLQALECDRQSAAAFCGVAHAKRLQGQFDVAYLHYRKLLQSGSEWDSVYSGMLSCAQHLQVHKADSDLALDAIALLRQEGLPHQEIGHFVGAIIQQQYDLDNPNAEIFLDAAAEDELLILALQKTLMPNAAVEELVVLLRRAIMAEVAQTASLRDELQPLCLAIAEYADRTGFALAAEDDEERLAATINESIMAQFAVGEPQEALIGSLMISAMYGALFHQNFAVQLGQWNLVDWPLAMQPIMAASYYNRAEEEAIKQNFDEKAEELCLEKTDVPQAWPAWSQLAYRTETSLKAVMAQELGLNTDNLPATLRIMVCGAQSGQRAMELAQYLNDVEVIAVDESLANIAKGTRMAQSLNMDNIVFWPWSIAQRFVADGHKVHWVEVGRLPSPAMTELSLAALINSASIAGAVVHMHTSMAEQTAGDKQIRRLIAEHQLQPTRTSLRQLRRMVLANKQDAVWSSLLQDDDFYSLGGCRDRWFRPQDANQLKELLALVSNEVEWKLVKARDEDGHSLATGPVQRQIQAEALGSEVQSLMGQNLSVYFQRRR”, the protein production is reported as “failed”.
For “MITFEKVTVENENVVKEMFRSHSLSEKQVQYCVKVDDTYIGVIDYRVQGETAILSQLIIHFDYQSYGYGTNTYFTFEMMMKERNVKEIKVLQTELTEPVKSFIESFGFNVEDG”, the protein production was “failed”.
With “MSTIFDTHWPWMGIGIACVLIILLFFTNTLRSDLRVNRWYDPFWLAWFSSTAYFIHNFEEYGIDLFGRHFEFPHLMTQTMHITPEISFFTMINIPLIWIAGPILAMMSKHRPVISLIMTGLMFTNALSHIVPLISSGMYTSGLFTSIVIFIPGSLWIYYIRFIKGNLRWSILIVSLIPPIITQGLLMLSILMYRNDFLNDTTVTVFELLNGCLFIIIAFIMEKSFKRKYKN” the protein production was “failed”.
With “MSVILLGLGRYVEEIVEVVSAISDVVLVERDEARLRAFLEKAPVANLRALPGSATDVGLWKEVDLEAAEAVISFLSVEATLDVARLLRKALGYRSKIVHVSKARPDPQAVRELDLEVVSIPEVLGAILRNLLQGQGIVRYPVGIGLRKGEVVEVLITESSPAVYARLRELRQPGARVALVYREGSPILPRADFRVQPGDRLLVVGDPRGVEIFVGAVIRGEPTFPRRFGSVGALCRAEDEEALYLKERLKVRDWVEACEDPKGVAEVGVFLARDRDWVRRAFQEGYPFPSFHLRGTHPYRSILVSANTEALSPLLASAMDLARIFGSEVYVLFVSRVEAFMPPEEKELLENLKVLVERARKTSGLEVHLIRKEGNPVRETLRLLKGKFNLLALGYTPGRRTAFFRPYVPQLLAQASPVSTLLVPEVNLER” the protein production was “failed”.
In the case of “MLRTEHYAFLPCISRALEERDSLGIRRELRARQQRLSMQQSRSKLGRVCVTGANSPLGQELVGALTRTPDPSLRPDAIGVIGARDPIESHSAGAGLHFPGPGVDFLECAATDLEHYNPRTLFSINDDDLGLRRRSIFRENQVVIDLLRAQGETNEPRSKTRLVLVTLLGCGDSEDAIPSQAFDVLRPLLLELSRVEQYVRESGLPYTIVRPGALEHGDADSRAIVSESKVGFGTIHRSTLAHLLLNVAASEKAVNKTLMALDMNRLLVAAPYVRPFEVWESPPFEVFDL”, the protein production is reported as “not failed”.
With “MDLRVLLSGLAYSTIFGLSFLFTKNALDYVTPLTFLSFRFIVAFLSYLLLLITGAVKLGKKPYWKLWKLVLFQPVLYFLFETYGLQRVNSSEAGMIIALIPIVVNLLAPFILKEKGDLLHYLLVGMGFLGVSLIVGFNITPGNIVGKVFMLLAVLSGAMYSVFSRKFSKEFTPTEITFFMMMTGAVFFTLLSLSTGDFRPVFNVDVVIGALYLGVLSSTVAFFLLNYAIRKLSPIFTTLFSNFTTVVSVIAGVVFRNETVGIQQIAGMGLIISSLIIMSLRRSYKRLSRAQKL” the protein production was “failed”.
In the case of “MAKKDNFEEYAQLEEYASAEDISRVRAELLTCPELNTSLAGTIIEIDKNYAKSILITTSEMVADDQGLIFDAFIFAAANYVAQASINKEFSVIIGSKCFFYAPLKLGDVLELEAHALFDETSKKRDVKVVGHVKEVKMFEGTIQVVSTDEHIFKLKRPPLNTVKPTENQEQGAKINNPEAVAAALMASVGGK”, the protein production is reported as “failed”.
For “MHTLNLGILAHVDAGKTSLTERLLHTVGVIDEIGSVDEGNTQTDSLALERQRGITIKSAVVSFAINDTTVNLIDTPGHPDFIAEVERVLSVLDGAVLVVSAVEGVQAQTRVLLRTLQRLRIPTLLFVNKIDRGGAGEERVLRAIAARLTPAIVPMGRAAGPGSRDARFIPYEAHDPGFGARLLDVLTEHDEELLAAYVKDTVSYGRLRTALVEQTRQALVHPVFFGSATTGAGVPELIAGIKELLPAAEGDPDGPVSGTVFKVERGPAGEKIAYARLFSGTVRTRDRLLFRDGEEGKVTAISVFDQGSAVREASVAAGRIGKLWGLAEIRIGDTFGEVPKAAEPSRHFSPPTLETVVVPGGRSDGGALHLALTQLAEQDPLINMRQDEIRREISLSLYGEVQKEVIQATLADAFGLDVTFRETTPICVERPVGTGAAVEFNGKGPHPFLATVGLRVEAAPVGSGVEFRLEVELGAMPYAFFKAVEDTVRETLGQGIHGWRVTDCTVTMTHSGYSPRQSHAHQGFDKSMSSTGADFRGLTPLVLMDALRQAGTRVHEPLHRFGLEAPADTLGAVLPVLAGLRAVVRTTRMREAVCVLEGLVPAAHVHELGQVLPGLTRGEGELETAFDHYAPVAGGTVPNRPRTDHNPLDRKEYLLNVTRRVGT”, the protein production was “failed”.
For “QLTVRRVAEHDLAALSEKAGGPVSIGTRDRLQVVYVDTIHDRGNNGAKPDIGSSRPLLHTAMGRALLYTFDAAERELLMPLLLEQEPQQGDAARAALEEAFAQIARTGFCTSYGSWRPELAGLAAPLRYRAGDLPFAINLTLPIDAVKDGRAEQEFGPYLARLAQSIDRRLGVDV”, the protein production was “failed”.
With “VLAPVVPGKALEFPQDFGAHNDFRIEWWYVTGWLETPTGKPLGFQITFFRTATEIDRDNPSHFAPDQLIIAHVALSDPAIGKLQHDQKIARAGFDLAYARTGNTDVKLDDWIFVRETDGRYRTRIEAEDFTLTFILTPSQPLMLQGENGFSRKGPGAPQASYYYSEPHLQVSGIINRQGEDIPVTGTAWLDREWSSEYLDPNAAGWDWISANLDDGSALMAFQIRGKDDSKIWAYAALRDASGHTRLFTPDQVSFHPIRTWRSARTQAVYPVATRVLTGETEWQITPLMDDQELDSRASAGAVYWEGAVTFTRDGQPAGRGYMELTGYVRPLSM” the protein production was “not failed”.
In the case of “MAISVIMSVYNERPEQVQQAVDSILKQTYLPREFVIVLDNPERSDLKDLLMDYDCRVEMIKLVCNPENLGLAASLNKAIELASSELIARMDADDISVTNRLEVELEALKTRDLDLISGNITYLDEQDEVVGEKSAIPEAEPLIQKILPYGSTIIHPTVLMRKTAVQQVGGYRLLPTAEDYDLWLRLLANGFKIGSINRRVLNYRLRGNSMTSDAWKTYLVSRYIQQLYAERKRTGADSFGRGMSALTDKINDVRAQSTFNRGQKYFTMAMASMRKRKLGQALAALVRAMVTSPDNCYYVINYLRLRTIWSVNGRRYRQQPSD”, the protein production is reported as “failed”.
